This sample holds only a part of the variants without activity.
B1: TPR 5TU (parent)
chain: GGAUCUUCUCGAUCUAACAAAAAAGACAAAUCUGCCACAAAGCUUGAGAGCAUCUUCGGAUGCAGAGGCGGCAGCCUUCGGUGGCGCGAUAGCGCCAACGUUCUCAACUAUGACACGCAAAACGCGUGCUCCGUUGAAUGGAGUUUAUCAUG

Variants of: B1
Assay: polymerase ribozyme fitness, log enrichment relative to wild type (log ratio); higher = more active; in vitro selection for triplet polymerase activity
In short: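 Both subunits of a heterodimeric triplet polymerase ribozyme were given their own mutant library, built by PCR and transcribed. Each library was annealed with a biotinylated primer, the partner subunit and triplets, incubated frozen at −7 °C, and its extended constructs gel-excised, captured on streptavidin beads and amplified by RT-PCR, all in one round done in triplicate. Fitness is the logarithm of genotype enrichment relative to wild-type enrichment, with replicates averaged by inverse-variance weighting. That logarithm is base 2, and Illumina-sequenced genotypes needed ≥10 input reads and ≥1 read per output.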
In the case of A41C G65A C93U G94U C103G, the “polymerase ribozyme fitness (log ratio)” value is reported as no more than -4.2.
In the case of G42A G59U C76U G88U C103G G152U, the “polymerase ribozyme fitness (log ratio)” value is reported as no more than -4.2.
With G42U A47C C87A U104G A107G the “polymerase ribozyme fitness (log ratio)” value was no more than -4.2.
For A41C G50C G84A, the “polymerase ribozyme fitness (log ratio)” value was no more than -4.2.
With G42C U45A G48U A49C C75U C118G U144C the “polymerase ribozyme fitness (log ratio)” value was no more than -4.2.
With A41C G58A G68A U104C A113C A147C the “polymerase ribozyme fitness (log ratio)” value was no more than -4.2.
In the case of G42C U44A A49U A60C C79U C96U C125A A142G, the “polymerase ribozyme fitness (log ratio)” value is reported as no more than -4.2.
With A41C C114U U127C the “polymerase ribozyme fitness (log ratio)” value was -3.96.
In the case of G42C C85U, the “polymerase ribozyme fitness (log ratio)” value is reported as -3.97.
In the case of A41C G83U G124U, the “polymerase ribozyme fitness (log ratio)” value is reported as -0.893.
For A41C U56A C85A G117A G140A, the “polymerase ribozyme fitness (log ratio)” value was no more than -4.2.
For G42C A60G C75G C105U A122G, the “polymerase ribozyme fitness (log ratio)” value was -4.18.
For G42A G58U A64G G68U G92C C95U C129U U134C, the “polymerase ribozyme fitness (log ratio)” value was no more than -4.2.
For G42C U56G U144A, the “polymerase ribozyme fitness (log ratio)” value was no more than -4.2.
With G42A C43A U82A A98G the “polymerase ribozyme fitness (log ratio)” value was no more than -4.2.
With G42U C76G G80A C95G the “polymerase ribozyme fitness (log ratio)” value was no more than -4.2.
For G42A C75G C87A, the “polymerase ribozyme fitness (log ratio)” value was no more than -4.2.
With A41U A52G U55A C69A G86U the “polymerase ribozyme fitness (log ratio)” value was -3.96.
With G42C U82G U104A C116U A137G G152A the “polymerase ribozyme fitness (log ratio)” value was no more than -4.2.
With G42U A73G U78G C93A U146A the “polymerase ribozyme fitness (log ratio)” value was no more than -4.2.
With A41U G83A the “polymerase ribozyme fitness (log ratio)” value was -0.754.
With A41U G83U the “polymerase ribozyme fitness (log ratio)” value was -1.35.
For G42A G59A G92A G100A C125A U146C, the “polymerase ribozyme fitness (log ratio)” value was no more than -4.2.
In the case of A41U C57U G80A, the “polymerase ribozyme fitness (log ratio)” value is reported as -1.12.
For G42C U55A C85U, the “polymerase ribozyme fitness (log ratio)” value was no more than -4.2.
In the case of G42A C116G, the “polymerase ribozyme fitness (log ratio)” value is reported as -3.99.
With A41U A52C A98U the “polymerase ribozyme fitness (log ratio)” value was -2.65.
In the case of A41C U90G A113C, the “polymerase ribozyme fitness (log ratio)” value is reported as no more than -4.2.
In the case of A41U G84A C96U A107C A147C, the “polymerase ribozyme fitness (log ratio)” value is reported as no more than -4.2.
In the case of A41G C54G U104A A119G G126U, the “polymerase ribozyme fitness (log ratio)” value is reported as -1.16.
For G42A U61A G86A G136C, the “polymerase ribozyme fitness (log ratio)” value was no more than -4.2.
In the case of A41C C93G, the “polymerase ribozyme fitness (log ratio)” value is reported as -3.5.
For A41U U55C C63U G86A, the “polymerase ribozyme fitness (log ratio)” value was -2.8.
With A41U C76U G88C U130C the “polymerase ribozyme fitness (log ratio)” value was no more than -4.2.
With G42C G84U A138G U146G the “polymerase ribozyme fitness (log ratio)” value was no more than -4.2.
In the case of A41G C51U A89C C95A U135C U148A, the “polymerase ribozyme fitness (log ratio)” value is reported as no more than -4.2.
In the case of A41C U53C G81C C114A A115U C123G, the “polymerase ribozyme fitness (log ratio)” value is reported as no more than -4.2.
With A41U C95U C99U G141C the “polymerase ribozyme fitness (log ratio)” value was -2.51.
With G42C A47C U53A U82C G84A A122G A138U G143C the “polymerase ribozyme fitness (log ratio)” value was no more than -4.2.
With G42C U90C U109A the “polymerase ribozyme fitness (log ratio)” value was no more than -4.2.
With A41C U53A C76U the “polymerase ribozyme fitness (log ratio)” value was -1.65.
For A41U G83U A150U, the “polymerase ribozyme fitness (log ratio)” value was -1.02.
With G42A U78G C116A C125G the “polymerase ribozyme fitness (log ratio)” value was no more than -4.2.
For A41C G48C C57U G84A, the “polymerase ribozyme fitness (log ratio)” value was -2.
In the case of G42A A60G C87G, the “polymerase ribozyme fitness (log ratio)” value is reported as no more than -4.2.
With G42A A89G C93U C125U G141U the “polymerase ribozyme fitness (log ratio)” value was no more than -4.2.
With A41C U61A A138U the “polymerase ribozyme fitness (log ratio)” value was -3.7.
In the case of A41U C103G G128U, the “polymerase ribozyme fitness (log ratio)” value is reported as no more than -4.2.
For A41U C54A G59A C85G, the “polymerase ribozyme fitness (log ratio)” value was -3.6.
In the case of A41G G50C C125U A142G, the “polymerase ribozyme fitness (log ratio)” value is reported as -3.92.
In the case of A41G U146G, the “polymerase ribozyme fitness (log ratio)” value is reported as -0.0573.
For A41C U55A G58C A98U, the “polymerase ribozyme fitness (log ratio)” value was -0.108.
With G42A C79G U144C the “polymerase ribozyme fitness (log ratio)” value was no more than -4.2.
With A41U C72G U90G C99G G112U C118U the “polymerase ribozyme fitness (log ratio)” value was no more than -4.2.
For G42C C95A, the “polymerase ribozyme fitness (log ratio)” value was no more than -4.2.
In the case of A41U G83A A150U, the “polymerase ribozyme fitness (log ratio)” value is reported as -0.63.
For G42A G84A, the “polymerase ribozyme fitness (log ratio)” value was -3.95.
With A41U G83C A110G G126A the “polymerase ribozyme fitness (log ratio)” value was no more than -4.2.
With A41C C96A the “polymerase ribozyme fitness (log ratio)” value was -0.56.
In the case of A41U G74A G94C, the “polymerase ribozyme fitness (log ratio)” value is reported as no more than -4.2.
In the case of A41U U82G G86U A97U G124C, the “polymerase ribozyme fitness (log ratio)” value is reported as -3.18.
With A41C G48A the “polymerase ribozyme fitness (log ratio)” value was -1.3.
With A41U G81A G84C C85A C96U G126A the “polymerase ribozyme fitness (log ratio)” value was no more than -4.2.
With G42A U56A C93U the “polymerase ribozyme fitness (log ratio)” value was no more than -4.2.
For A41C U135G, the “polymerase ribozyme fitness (log ratio)” value was -3.54.
For A41C U55C C85G C108U G126A, the “polymerase ribozyme fitness (log ratio)” value was no more than -4.2.
With A41C G94A U104G A113C C116G the “polymerase ribozyme fitness (log ratio)” value was no more than -4.2.
For G42U A106C, the “polymerase ribozyme fitness (log ratio)” value was -4.17.
For G42C U45G U146C, the “polymerase ribozyme fitness (log ratio)” value was no more than -4.2.
For A41U U56A C93A A121U, the “polymerase ribozyme fitness (log ratio)” value was -3.16.
In the case of A41C C105A, the “polymerase ribozyme fitness (log ratio)” value is reported as -2.1.
In the case of A41C U53A U56A A66C C79G G84U, the “polymerase ribozyme fitness (log ratio)” value is reported as no more than -4.2.
With A41C C85U A122U G126C the “polymerase ribozyme fitness (log ratio)” value was -0.655.
In the case of A41C C93G U144C, the “polymerase ribozyme fitness (log ratio)” value is reported as -3.7.
For A41C U127C, the “polymerase ribozyme fitness (log ratio)” value was -2.04.
For A41C C85A C105G G126U, the “polymerase ribozyme fitness (log ratio)” value was -3.3.
With G42C C54G A91U G124A C131G the “polymerase ribozyme fitness (log ratio)” value was no more than -4.2.
With A41G U44A U61C C75U A142C the “polymerase ribozyme fitness (log ratio)” value was no more than -4.2.
For A41U G58A G74U C108A A120G G141A, the “polymerase ribozyme fitness (log ratio)” value was no more than -4.2.
With G42A A49G A64G A107U C114U the “polymerase ribozyme fitness (log ratio)” value was no more than -4.2.
For A41U C96A C105A G117U U144G, the “polymerase ribozyme fitness (log ratio)” value was no more than -4.2.
For G42U A47G C99G C116U, the “polymerase ribozyme fitness (log ratio)” value was no more than -4.2.
In the case of A41C C79U G94U G100A C125A, the “polymerase ribozyme fitness (log ratio)” value is reported as -2.23.
